± gives the standard error. For part of these data: This sample holds only a part of the variants without activity.
B1: glmS ribozyme (parent)
chain: AUAAAAGCGCCAGAACUACAGAAAUGUAGUUGACGAGGAGGAGGUUUAUCGAAUUUUCGGCGGAUGCCUCCAAA

Tests used:
Conditions in all cases: with glucosamine-6-phosphate
[1] = variants of: B1; assay: kcat; higher = faster cleavage; RNA array
How it was run: (§1)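 kcat and KM were obtained from weighted Michaelis–Menten fits across concentrations of kobs values. Those came from one- or two-exponential decay fits to per-tile medians normalised to baseline and to non-cleaving reference variants. The variants were barcoded ribozymes transcribed in situ by E. coli RNA polymerase on sequenced MiSeq chips and tracked through a hybridised Cy3 probe at 37 °C, with 40 μM to 10 mM glucosamine-6-phosphate in HEPES/KCl/Mg(OAc)2 buffer flowed in.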

[2] = variants of: B1; assay: self-cleavage kobs at 40 uM GlcN6P; higher = faster cleavage; RNA array
How it was run: as §1

[3] = variants of: B1; assay: self-cleavage kobs at 160 uM GlcN6P; higher = faster cleavage; RNA array
How it was run: as §1

[4] = variants of: B1; assay: self-cleavage kobs at 640 uM GlcN6P; higher = faster cleavage; RNA array
How it was run: as §1

[5] = variants of: B1; assay: self-cleavage kobs at 2500 uM GlcN6P; higher = faster cleavage; RNA array
How it was run: as §1

[6] = variants of: B1; assay: self-cleavage kobs at 10000 uM GlcN6P; higher = faster cleavage; RNA array
How it was run: as §1

[7] = variants of: B1; assay: KM; higher = weaker cofactor use; RNA array
How it was run: as §1

Row | Variant | kcat [1] [s⁻¹] | self-cleavage kobs at 40 uM GlcN6P [2] [s⁻¹] | self-cleavage kobs at 160 uM GlcN6P [3] [s⁻¹] | self-cleavage kobs at 640 uM GlcN6P [4] [s⁻¹] | self-cleavage kobs at 2500 uM GlcN6P [5] [s⁻¹] | self-cleavage kobs at 10000 uM GlcN6P [6] [s⁻¹] | KM [7] [µM]
1 | A15U C16G C50G A52G | 1.88e-05 ± 5.2e-06 |  |  |  |  |  | 
2 | C16A U54C | 0.00231 ± 0.00079 | 6.96e-05 ± 1.3e-05 | 0.000102 ± 2.6e-05 | 0.000575 ± 0.00013 | 0.000967 ± 0.00025 | 0.00194 ± 0.00029 | 
3 | A15U U47A | 0.00433 ± 0.0014 | 0.00015 ± 3.6e-05 | 0.000273 ± 6.7e-05 | 0.000846 ± 0.00036 | 0.00263 ± 0.00057 | 0.00356 ± 0.0009 | 1960 ± 890
4 | A15U G44A | 3.69e-05 ± 5.2e-07 |  |  |  |  | 2.88e-05 ± 1.1e-05 | 2790 ± 140
5 | A15C C58U | 3.18e-05 ± 2.2e-06 |  |  |  | 2.9e-05 ± 1.1e-05 |  | 214 ± 97
6 | A15C U55G C70A | 4.71e-05 ± 9.2e-06 |  |  | 5.4e-05 ± 1.4e-05 | 4.46e-05 ± 1.3e-05 | 3.54e-05 ± 1.7e-05 | 
7 | C16A U46G | 0.000285 ± 5.2e-05 |  |  | 7.33e-05 ± 1.3e-05 | 0.000212 ± 3e-05 | 0.000222 ± 3.3e-05 | 1720 ± 670
8 | C16A U30G | 0.000341 ± 4.6e-05 |  |  | 6.82e-05 ± 1.2e-05 | 0.000175 ± 2.3e-05 | 0.000243 ± 9.7e-05 | 2530 ± 560
9 | C16A C68A | 1.91e-05 ± 5.8e-06 |  |  |  |  |  | 
10 | C16A C50A U69C | 3.42e-05 ± 1.5e-05 |  |  |  | 5.24e-05 ± 2.3e-05 |  | 
11 | C16G A64G | 0.00475 ± 0.0023 | 0.000127 ± 1.8e-05 | 0.000468 ± 0.00021 | 0.00103 ± 0.00014 | 0.00156 ± 0.00036 | 0.00584 ± 0.00071 | 
12 | A15G U65G | 0.0045 ± 0.0017 | 4.05e-05 ± 1e-05 | 0.000133 ± 3.7e-05 | 0.000664 ± 0.00013 | 0.00285 ± 0.0006 | 0.00279 ± 0.00062 | 4200 ± 2000
13 | C16A U57A | 2.09e-05 ± 4.3e-06 | < 1e-05 | < 1e-05 |  |  |  | 
14 | C16A C67U | 0.000302 ± 4.6e-05 |  | 6.4e-05 ± 1.4e-05 | 0.000122 ± 1.3e-05 | 0.000286 ± 3.2e-05 | 0.000261 ± 3.1e-05 | 782 ± 280
15 | A15U C67A | 0.00148 ± 0.00015 | 4.29e-05 ± 1e-05 | 0.000119 ± 1.6e-05 | 0.000447 ± 9.2e-05 | 0.000861 ± 0.00014 | 0.00127 ± 0.00019 | 1700 ± 250
16 | A15G U45G | 0.00832 ± 0.00089 | 0.000211 ± 3.4e-05 | 0.000643 ± 9.8e-05 | 0.0024 ± 0.00037 | 0.0044 ± 0.00084 | 0.00741 ± 0.001 | 1730 ± 260
17 | A15U A53U | 0.00543 ± 0.0013 | 9.26e-05 ± 9.9e-06 | 0.000245 ± 3.8e-05 | 0.000755 ± 0.00012 | 0.00314 ± 0.00055 | 0.0042 ± 0.00042 | 2950 ± 940

Row | Variant | kcat [1] [s⁻¹] | self-cleavage kobs at 40 uM GlcN6P [2] [s⁻¹] | self-cleavage kobs at 160 uM GlcN6P [3] [s⁻¹] | self-cleavage kobs at 640 uM GlcN6P [4] [s⁻¹] | self-cleavage kobs at 2500 uM GlcN6P [5] [s⁻¹] | self-cleavage kobs at 10000 uM GlcN6P [6] [s⁻¹] | KM [7] [µM]
18 | A15C A42G A53C | 0.00239 ± 0.001 |  |  | 0.000469 ± 0.00012 | 0.000746 ± 0.00018 | 0.00192 ± 0.00042 | 
19 | A15C U55A | 0.00649 ± 0.0016 | 0.000161 ± 2.8e-05 | 0.000516 ± 8.7e-05 | 0.00128 ± 0.00023 | 0.00484 ± 0.00095 | 0.0054 ± 0.00095 | 1920 ± 650
20 | A15C U55G | 0.00196 ± 0.00085 | 0.000128 ± 3e-05 | 0.000255 ± 4.7e-05 |  | 0.00118 ± 0.0002 | 0.00334 ± 0.00064 | 
21 | A15C U57A | 7.96e-05 ± 6.3e-06 |  |  |  | 3.94e-05 ± 1.2e-05 | 6.22e-05 ± 8.8e-06 | 2770 ± 750
22 | C16A G38U | < 1e-05 |  |  |  | < 1e-05 |  | 
23 | A15C G32U | 0.00121 ± 6.6e-05 |  |  | 0.000107 ± 1.4e-05 | 0.000321 ± 4.8e-05 | 0.000731 ± 7.6e-05 | 6690 ± 540
24 | A15C G32C | 0.000182 ± 5.4e-06 |  |  | 3.08e-05 ± 1e-05 | 7.51e-05 ± 2e-05 | 0.000138 ± 1.7e-05 | 3300 ± 240
25 | A15U A64U | 1.4e-05 ± 4.2e-06 | < 1e-05 | < 1e-05 |  |  |  | 
26 | A15C U45C | 0.000613 ± 8.6e-05 |  |  | 6.81e-05 ± 1.6e-05 | 0.000176 ± 3.7e-05 | 0.000409 ± 7.5e-05 | 5480 ± 1200
27 | C16G C58U | 3.48e-05 ± 3.2e-06 | < 1e-05 |  |  | 3.89e-05 ± 9.2e-06 | 3.22e-05 ± 5.6e-06 | 
28 | C16G G32A C68U | 0.000119 ± 1.4e-05 |  |  | 0.000129 ± 3.9e-05 | 9.95e-05 ± 3.8e-05 | 0.000115 ± 1.8e-05 | 
29 | C16G C50G | 4.79e-05 ± 1.9e-05 |  |  |  | 6.05e-05 ± 1.4e-05 |  | 
30 | C16A U31A | 0.0016 ± 0.00038 |  | 8.65e-05 ± 2.4e-05 | 0.000194 ± 5.1e-05 | 0.000585 ± 0.00016 | 0.00119 ± 0.00027 | 3990 ± 1400
31 | C16G A39C | 0.000798 ± 6e-05 |  | 4.38e-05 ± 9.6e-06 | 0.000184 ± 2.9e-05 | 0.000427 ± 6.6e-05 | 0.000629 ± 7.2e-05 | 2400 ± 310
32 | A15U C68A | 2.71e-05 ± 1e-05 |  |  |  | 3.7e-05 ± 1.7e-05 |  | 
33 | A15U C68G | 4.37e-05 ± 1e-05 |  |  | 2.81e-05 ± 1.4e-05 | 4.48e-05 ± 1e-05 |  | 
